Target: wild-type core streptavidin
Assay: SDS-PAGE with fluorescence scanning

wild-type core streptavidin (natural protein)
stoichiometry N: 4

— article PMC5399476
